Experimental findings from patent publication US7794719 (dated 2010) are described below.

Where a chain is given by its changes, count along the chain named. Read-outs that look alike come from different tables or passages of the source.

What all share (assay): SPR
The target in experiment [1] is Aβ1-40 fibers (human).
The target in experiment [2] is Aβ1-42 fibers (human).
Experiment [3] concerns the target Aβ1-40 fibers (human). The source holds these as a separate data set.
Experiment [4] concerns the target Aβ1-42 fibers (human). This is another data set of the same source.

B1: MS-R 8.2L1 Fab (antibody, V domains shown)
VH: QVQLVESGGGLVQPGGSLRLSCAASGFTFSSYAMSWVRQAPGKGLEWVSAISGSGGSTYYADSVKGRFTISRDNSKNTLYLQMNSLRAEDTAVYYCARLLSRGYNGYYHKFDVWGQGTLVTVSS
VL: DIVLTQSPATLSLSPGERATLSCRASQRVSGRYLAWYQQKPGQAPRLLIYGASSRATGVPARFSGSGSGTDFTLTISSLEPEDFATYYCQQLSSYPPTFGQGTKVEIKR
As for B1, the Kd in the experiment with Aβ1-40 fibers [1] is 4.8 nM; with Aβ1-42 fibers [2] it was 3.7 nM.

B2: MS-R 7.4H2 x 7.2L1 Fab (antibody, V domains shown)
VH: QLVESGGGLVQPGGSLRLSCAASGFTFSSYAMSWVRQAPGKGLEWVSAINYNGARIYYADSVKGRFTISRDNSKNTLYLQMNSLRAEDTAVYYCARGKGNTHKPYGYVRYFDVWGQGTLVTVSS
VL: B1 VL with R28Y, S30D, G31R, R32T, L92I, S93Y, Y95F, P97H
Regarding B2, the Kd in the experiment with Aβ1-40 fibers [3] and with Aβ1-42 fibers [4] was 1.4 nM throughout.

B3: MS-R 3.3H1 x 3.4L9 Fab (antibody, V domains shown)
VH: QLVESGGGLVQPGGSLRLSCAASGFTFSSYAMSWVRQAPGKGLEWVSVISEKSRFIYYADSVKGRFTISRDNSKNTLYLQMNSLRAEDTAVYYCARLTHYARYYRYFDVWGQGTLVTVSS
VL: B1 VL with Q27R, V29I, S30H, G31V, R32Y, L92T, S93Y, S94D
As for B3, the Kd with Aβ1-40 fibers [3] is 2.16 nM; with Aβ1-42 fibers [4], 2.97 nM.

B4: MS-R 7 Fab (antibody, V domains shown)
VH: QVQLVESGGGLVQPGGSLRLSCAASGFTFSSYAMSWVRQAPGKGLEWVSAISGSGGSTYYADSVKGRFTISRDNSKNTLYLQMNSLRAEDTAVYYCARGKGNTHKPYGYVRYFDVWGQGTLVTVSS
VL: B1 VL with R28S, G31S, R32S, Q90F, S93Y, Y95D, P97F
As to B4, the dissociation constant Kd was 1100 nM with Aβ1-40 fibers [1] and 1710 nM with Aβ1-42 fibers [2].

B5: MS-R 7.2H2 x 7.2L1 Fab (antibody, V domains shown)
VH: B2 VH with Y51G, N52T, A54M, R55K, I56K
VL: B1 VL with R28Y, S30D, G31R, R32T, L92I, S93Y, Y95F, P97H
For the molecule B5, the figures for the Kd with Aβ1-40 fibers [3] and with Aβ1-42 fibers [4] were 1.29 nM and 1.43 nM, respectively.

B6: MS-R 7.2L1 Fab (antibody, V domains shown)
VH: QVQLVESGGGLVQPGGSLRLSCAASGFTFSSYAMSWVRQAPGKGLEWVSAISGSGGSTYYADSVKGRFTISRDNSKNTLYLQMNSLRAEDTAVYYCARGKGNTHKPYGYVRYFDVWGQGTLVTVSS
VL: B1 VL with R28Y, S30D, G31R, R32T, L92I, S93Y, Y95F, P97H
As to B6, the equilibrium dissociation constant (Kd) with Aβ1-40 fibers [1] is 13.3 nM; in the experiment with Aβ1-42 fibers [2], 12.7 nM.

B7: MS-R 7.11H1 x 7.11L1 Fab (antibody, V domains shown)
VH: B2 VH with A48G, Y51A, N52A, A54F, I56T
VL: B1 VL with V29I, S30L, G31R, R32I, L92V, S93Y, Y95P, P97H
Turning to B7, the Kd in the experiment with Aβ1-40 fibers [3] is 0.41 nM; in the experiment with Aβ1-42 fibers [4], 0.47 nM.

B8: MS-R 7.9 Fab (antibody, V domains shown)
VH: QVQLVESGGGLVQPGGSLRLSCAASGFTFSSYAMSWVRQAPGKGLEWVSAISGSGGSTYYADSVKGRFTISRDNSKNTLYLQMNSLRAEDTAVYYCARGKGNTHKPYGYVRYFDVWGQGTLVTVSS
VL: B1 VL with R28S, G31S, R32S, Q90L, L92I, S93Y, S94N, Y95M, P97I
On to B8, for which the dissociation constant (Kd) with Aβ1-40 fibers [1] worked out at 31 nM; with Aβ1-42 fibers [2] it was 93 nM.

B9: MS-R 8.1H1 x 8.2L1 Fab (antibody, V domains shown)
VH: QLVESGGGLVQPGGSLRLSCAASGFTFSSYAMSWVRQAPGKGLEWVSAISRSGSNIYYADSVKGRFTISRDNSKNTLYLQMNSLRAEDTAVYYCARLLSRGYNGYYHKFDVWGQGTLVTVSS
VL: B1 VL
Regarding B9, the Kd with Aβ1-40 fibers [3] came to 1.3 nM; with Aβ1-42 fibers [4] it was 1.6 nM.

B10: MS-R 3.4H3 x 3.4L7 Fab (antibody, V domains shown)
VH: B3 VH with E51Q, K52T, S53G, F55K
VL: B1 VL with V29L, S30G, G31R, R32L, L92T, S93Y, S94D
On to B10, for which the Kd with Aβ1-40 fibers [3] and with Aβ1-42 fibers [4] was 0.92 nM in each case.

B11: MS-R 3.4L7 Fab (antibody, V domains shown)
VH: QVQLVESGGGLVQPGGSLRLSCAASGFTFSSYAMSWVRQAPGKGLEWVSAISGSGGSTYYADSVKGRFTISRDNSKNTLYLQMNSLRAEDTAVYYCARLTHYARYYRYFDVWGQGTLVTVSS
VL: B1 VL with V29L, S30G, G31R, R32L, L92T, S93Y, S94D
As for B11, the Kd in the experiment with Aβ1-40 fibers [1] and in the experiment with Aβ1-42 fibers [2] was 9.3 nM each time.

B12: MS-R 3.6L2 Fab (antibody, V domains shown)
VH: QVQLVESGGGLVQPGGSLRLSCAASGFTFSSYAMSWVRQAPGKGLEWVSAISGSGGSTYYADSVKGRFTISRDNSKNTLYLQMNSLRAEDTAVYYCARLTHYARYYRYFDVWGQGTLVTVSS
VL: B1 VL with R28F, V29L, G31R, R32Y, T86V, L92T, S93Y, S94N
Turning to B12, the Kd came to 13.7 nM with Aβ1-40 fibers [1] and 13.1 nM with Aβ1-42 fibers [2].

B13: MS-R 7.9H2 Fab (antibody, V domains shown)
VH: B2 VH with Y51A, N52D, A54N, I56K
VL: B1 VL with R28S, G31S, R32S, Q90L, L92I, S93Y, S94N, Y95M, P97I
Take B13: the Kd in the experiment with Aβ1-40 fibers [1] is 5 nM; with Aβ1-42 fibers [2] it was 5.7 nM.

B14: MS-R 7.11H2 x 7.9L1(L1) Fab (antibody, V domains shown)
VH: B2 VH with Y51A, A54Y, R55K, I56K
VL: B1 VL with V29L, G31P, Q90L, L92I, S93Y, S94N, Y95M, P97I
Turning to B14, the Kd with Aβ1-40 fibers [3] was determined as 0.1 nM; with Aβ1-42 fibers [4], 1 nM.

B15: MS-R 3.4H3 x 3.4L9 Fab (antibody, V domains shown)
VH: B3 VH with E51Q, K52T, S53G, F55K
VL: B1 VL with Q27R, V29I, S30H, G31V, R32Y, L92T, S93Y, S94D
As to B15, the equilibrium dissociation constant (Kd) with Aβ1-40 fibers [3] is 1.05 nM; with Aβ1-42 fibers [4], 0.93 nM.

B16: MS-R 3.4H1 x 3.4L9 Fab (antibody, V domains shown)
VH: B3 VH with V48A, K52T, R54I, F55R, I56K
VL: B1 VL with Q27R, V29I, S30H, G31V, R32Y, L92T, S93Y, S94D
As for B16, the Kd with Aβ1-40 fibers [3] was determined as 0.25 nM; with Aβ1-42 fibers [4], 0.5 nM.

B17: MS-R 3.6H5 x 3.6L1 Fab (antibody, V domains shown)
VH: B3 VH with V48A, K52S, S53G, R54K, F55T, I56K
VL: B1 VL with R28F, V29I, S30Q, G31R, R32F, T86V, L92T, S93Y, S94N
For B17, the equilibrium dissociation constant (Kd) was 1.25 nM in the experiment with Aβ1-40 fibers [3] and 1.04 nM with Aβ1-42 fibers [4].

B18: MS-R 7.9H4 Fab (antibody, V domains shown)
VH: B2 VH with Y51A, N52V, A54M, R55K, I56K, Y57F
VL: B1 VL with R28S, G31S, R32S, Q90L, L92I, S93Y, S94N, Y95M, P97I
On to B18, for which the Kd with Aβ1-40 fibers [1] is 4.8 nM; with Aβ1-42 fibers [2], 4.2 nM.

B19: MS-R 7.11L1 Fab (antibody, V domains shown)
VH: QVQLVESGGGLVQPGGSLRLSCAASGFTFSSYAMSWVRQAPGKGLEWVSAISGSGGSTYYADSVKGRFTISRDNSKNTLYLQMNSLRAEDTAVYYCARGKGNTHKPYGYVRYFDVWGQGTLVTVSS
VL: B1 VL with V29I, S30L, G31R, R32I, L92V, S93Y, Y95P, P97H
Take B19: the Kd worked out at 1.1 nM with Aβ1-40 fibers [1] and 1.2 nM in the experiment with Aβ1-42 fibers [2].

B20: MS-R 7.9H7 Fab (antibody, V domains shown)
VH: QVQLVESGGGLVQPGGSLRLSCAASGFTFSSYAMSWVRQAPGKGLEWVSAINASGTRTYYADSVKGRFTISRDNSKNTLYLQMNSLRAEDTAVYYCARGKGNTHKPYGYVRYFDVWGQGTLVTVSS
VL: B1 VL with R28S, G31S, R32S, Q90L, L92I, S93Y, S94N, Y95M, P97I
B20: the equilibrium dissociation constant (Kd) with Aβ1-40 fibers [1] was 1 nM; with Aβ1-42 fibers [2] it was 0.9 nM.

B21: MS-R 7.11H2 x 7.2L1(L1) Fab (antibody, V domains shown)
VH: B2 VH with Y51A, A54Y, R55K, I56K
VL: B1 VL with R28Y, S30D, G31R, R32T, L92I, S93Y, Y95F, P97H
For B21, the figures for the Kd with Aβ1-40 fibers [3] and with Aβ1-42 fibers [4] were 1 nM and 0.6 nM, respectively.

B22: MS-R 3.6L1 Fab (antibody, V domains shown)
VH: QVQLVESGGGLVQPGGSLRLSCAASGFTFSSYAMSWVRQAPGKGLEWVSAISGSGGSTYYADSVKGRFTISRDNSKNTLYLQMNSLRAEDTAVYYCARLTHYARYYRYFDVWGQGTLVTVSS
VL: B1 VL with R28F, V29I, S30Q, G31R, R32F, T86V, L92T, S93Y, S94N
Turning to B22, the Kd stood at 15.6 nM with Aβ1-40 fibers [1] and 11.1 nM with Aβ1-42 fibers [2].

B23: MS-R 3.4L9 Fab (antibody, V domains shown)
VH: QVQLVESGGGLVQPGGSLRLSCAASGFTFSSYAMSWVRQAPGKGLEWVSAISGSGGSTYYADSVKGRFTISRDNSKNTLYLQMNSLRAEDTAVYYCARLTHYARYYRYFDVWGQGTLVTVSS
VL: B1 VL with Q27R, V29I, S30H, G31V, R32Y, L92T, S93Y, S94D
As to B23, the dissociation constant Kd came out at 16.3 nM with Aβ1-40 fibers [1] and 9.1 nM with Aβ1-42 fibers [2].

B24: MS-R 3.4H7 x 3.4L7 Fab (antibody, V domains shown)
VH: B3 VH with K52T, S53G, R54K, F55N
VL: B1 VL with V29L, S30G, G31R, R32L, L92T, S93Y, S94D
With B24, the equilibrium dissociation constant (Kd) in the experiment with Aβ1-40 fibers [3] amounted to 1.19 nM; with Aβ1-42 fibers [4], 1.23 nM.

B25: MS-R 3.6H5 x 3.6L2 Fab (antibody, V domains shown)
VH: B3 VH with V48A, K52S, S53G, R54K, F55T, I56K
VL: B1 VL with R28F, V29L, G31R, R32Y, T86V, L92T, S93Y, S94N
In the case of B25, the dissociation constant (Kd) with Aβ1-40 fibers [3] was determined as 1.26 nM; with Aβ1-42 fibers [4] it was 0.84 nM.

B26: MS-R 7.11H1 x 7.2L1 Fab (antibody, V domains shown)
VH: B2 VH with A48G, Y51A, N52A, A54F, I56T
VL: B1 VL with R28Y, S30D, G31R, R32T, L92I, S93Y, Y95F, P97H
With B26, the figures for the dissociation constant Kd with Aβ1-40 fibers [3] and with Aβ1-42 fibers [4] were 1.75 nM and 1.39 nM, respectively.

B27: MS-R 3.4H7 x 3.4L9 Fab (antibody, V domains shown)
VH: B3 VH with K52T, S53G, R54K, F55N
VL: B1 VL with Q27R, V29I, S30H, G31V, R32Y, L92T, S93Y, S94D
Regarding B27, the figures for the dissociation constant (Kd) with Aβ1-40 fibers [3] and with Aβ1-42 fibers [4] were 2.66 nM and 3.51 nM, respectively.

B28: MS-R 7.9H2 x 7.2L1(L1) Fab (antibody, V domains shown)
VH: B2 VH with Y51A, N52D, A54N, I56K
VL: B1 VL with R28Y, S30D, G31R, R32T, L92I, S93Y, Y95F, P97H
Turning to B28, the Kd with Aβ1-40 fibers [3] and in the experiment with Aβ1-42 fibers [4] was 1.4 nM in each case.

B29: MS-R 7.4H2 x 7.12L2 Fab (antibody, V domains shown)
VH: B2 VH
VL: DIVLTQSPATLSLSPGERATLSCRASQRFFYKYLAWYQQKPGQAPRLLISGSSNRATGVPARFSGSGSGTDFTLTISSLEPEDFAVYYCLQLYNIPNTFGQGTKVEIKR
With B29, the Kd in the experiment with Aβ1-40 fibers [3] was 1.4 nM; in the experiment with Aβ1-42 fibers [4] it was 1.8 nM.

B30: MS-R 7.9H2 x 7.12L2(L1+2) Fab (antibody, V domains shown)
VH: B2 VH with Y51A, N52D, A54N, I56K
VL: B29 VL
Regarding B30, the Kd in the experiment with Aβ1-40 fibers [3] and with Aβ1-42 fibers [4] was 0.4 nM in each case.

B31: MS-R 7.9H2 x 7.12L1 Fab (antibody, V domains shown)
VH: B2 VH with Y51A, N52D, A54N, I56K
VL: B29 VL with R28Y, F29V, Y31R, K32R
With B31, the Kd with Aβ1-40 fibers [3] came to 1.2 nM; with Aβ1-42 fibers [4], 1.1 nM.
